Assay: yeast display, Sf9 membrane polyspecificity reagent, FACS + sequencing; frameworks hold sequencing errors
Procedure, shortened: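 Synthetic nanobody libraries on Saccharomyces cerevisiae BJ5465 were galactose-induced for 36–48 hours, stained 1 hour at 4 °C with 10% biotinylated, detergent-solubilized Sf9 membrane reagent and enriched on streptavidin microbeads. FACS then separated cells into low and high (top ~1%) gates by anti-HA (expression) and streptavidin (reagent binding) fluorescence. Genes were colony-PCR amplified, MiSeq 2 × 250 sequenced and CDR-length filtered. A clone's polyreactivity label is that of its gate of origin.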

Row | Sequence | polyreactivity (PSR sort gate)
1 | QVQLVESGGGLVQAGVSLRLSCAAAGITFGDYSMGWYRQEPGKEMELVAGIYWSGDGTSYADSVKGRFTISRDNAKNTVYLQMYRLKPEDTAVYYFAAYWYYYLMDYWGQGTQVSVSS | low polyreactivity
2 | QGQLVESGGGLVQAGGSLRLSCAASGSIFRPYPMGWYRQAPGKERELVATISSTGITNYADSVKGRFTISRDNAKNTVYLQMNSLKPEDTADYYCSAGLWYSYDYWGQGTQVTVSS | high polyreactivity
3 | QVQLVESGGGLVQAGGSLRLSCAASGSMFTNYAMGWYRQAPGQERELVAAISVGGGRTYYADSVKGRFTISRDNAQNTVYVQLNSLKPEDTAVYYCAARYPFGSLGRYGYWGQGTQVTVSS | high polyreactivity
4 | QVQLQESGGGLVQAGGSLRLSCAASGYISHADEMGWYRQAPGKEHELVASISNGGSTNYADSVKGRFTISRDNANNTVYLQMNSLKSEVTAVYYCAAWTGQVDIHYYWGQGTQVTVSS | low polyreactivity
5 | QVPLVASGGGLVQAGGSLRLSCSASGRTFQYNAMGCYRQAPGKERELVAAITKRGTSTYFADSVKGRFTISRDNAKNTVYLQMNRLIPEDTAVYYCAALEGSLTGWQTYDYWGQGTQVTVSS | low polyreactivity
6 | QVQLVESGGGLVQAGGSLRLSCAASGFTFGRYALGWYRQPPGKERELVAVISWSGVSTYYADSVKGRFTISRDNAKNTVYLQMNSLKPEDTAVYYCNKRSYHYPYGYDYWGQGTQVTVSS | high polyreactivity
7 | QVQLVESGGGLVQAGGSLRLSCAASGRTFYFYVMGWYRQAPGKERELVARISWSGGSTYYADSVKGRFTISRDNAKNTVYLQMNSLKPEDTAVYYCARQYKYPSSGEYDSWGQGTQVTVSS | low polyreactivity
8 | QVQLVESGGGLVQAGGSLRLSCAASGRIFTYYAMGWFRQAPGKERELVAAISFRGSSTYYADSVKGRVTLSRDNAKNTVYLQRNSLKPEDTAVYYCAAERIARPTFDYWGQGTQVTVSS | low polyreactivity
9 | QVQLVESGGGLVQAGGSLRLSCAASGSIFIPNAMGWYRQAPGKERELVAAISLSDTTTYYADSVKGRFTISRDNAKNTVYLKMNSLKPEDTAVYYCAADYWFYPTSPDMDYLGQGTQVTVSS | low polyreactivity
10 | QVQLVESGGGLVQGGGSLRLSCAASGLIFARNAMGWYRQAPGKERELVAAISKRGGSTFYADSVKGRFTISRDNAKKTVYLQMNSLKPEDTAVYYCHARSSETWHGDYWGQGTQLTVSS | high polyreactivity
11 | QVQLVESRGGLVQAGGSLRLSCAASGRIFSSYAMGWYRQAPGKERELVAAISSRGGSTYYADSVKGRFTISRDNAKNTVYLQMNSLKPDDTAVYYCARVKYSGVVYKYDYWGQGTQVTVSS | high polyreactivity
12 | QVQLVESGGGLVQAGGSLRLSCAASGRTFWGNAMGWYRQAPGKDRELVAAITSGGSTYYADSVKGRFTISRDNAKNTVYLQMNSLKPEDTAVYYCATRRIYKWYRYYYWGQGTQVTVSS | high polyreactivity
13 | QVQLVESGGGSLRLSCAASGLTFGGYTMGWIRQAPGKERELVAAISSSDSTNYADSVKGRFTISRDNAKNTVYVQMNSLKPEDTALYSCSADSGQWSRYSSFGDEGDSWGQGTQVTVSS | low polyreactivity
14 | QVQLVESGGGLVQAGGSLRLSCAASGRICGVYAMGWYRQAPGKERELVAAITARGGSTYYADSVKGRFTISRDNAKNTVYLQMNSLKPEVTAVYYCATRLYKRTRTITYGYWGQGTQVTVSS | high polyreactivity
15 | QVQLVESGGGLVQAGGSLRLSCAASGSIFRYYAMGWYRQAPGKERELVATISWRGGRTNYADSVKGRFTISRDNAKNTVYLQMNSLKPEDTAVYYCAADPVRRPWGVVGGDYWGQGTQVTVSS | high polyreactivity
16 | QVQLVESGGGLVQAGGSLRLSCAASGLTLSYNAMGWYRQAPGKERELVAAIRSGGSTNYADSVKGRFTISRDNAKNTVYLQMNSLKPVDTAVYYCAARFRYLPYRYGRYQSGYEYWGQGTQVTVSS | high polyreactivity

Row | Sequence | polyreactivity (PSR sort gate)
17 | QVQLVESGGGLVQAGGSLRISCADSGITYSANAMGWYRQAPGKERELVAAITGSGGGTYYADSVKGRFTISRDNAKNTVYLQMNSLKPEDTAVYYCKADNYYYSGFDYWGQGTQVTVSS | low polyreactivity
18 | QVNLVESGVGLVQAGVSLRLSCAASGRIFQYYAMGWYRQATGKERELVAAISRSGGSTYYADSVKGRFTISRDNANNTVYLQMNSLKPEDTAVYYCAKVYRGFSYGYCGQGTQVTVSS | high polyreactivity
19 | QVQLVESGGGLVQAGGSLRLSCAASGSTFLNNAMGWYRQAPGKERELVASIRYSSARTYYADTVKGRFTISRDNAKNTVYLQMNSLKPEDTAVYYCAADRWVGYRVYKYDYWGQGTQVTVSS | high polyreactivity
20 | QVQLVESGGGLVQAGGSLRLSCAASGRILYYYVMGWYRQAPGKERELVAAITRGGSTDYADSVKGRFTISLDNAKNTVYLQMNSLKPEDTAVYYCAAVVYLHYSVDYWGQGSQVTVSS | low polyreactivity
21 | QVQLVESGGGLVQAGGSLRLSCAASGRTVYSYAMGWYRQAPGKERELVAAISYTGASTFYADSVKGRFTISRDNAKNTVYLQMNSLKPEDTAVYYCAAESQPSYGETDEYWGQGTQVTVSS | high polyreactivity
22 | QVQLGESGGGLVQAGGSLRLSCAASGRTIGYYAMGWYRQAPGKERELVAAISVSGTNTYYADSVKGRFTISRDNAKNTVNLQMNSLKPEDTAVYYCAARKVSGVYRAFYYWGQGTQVTVSS | high polyreactivity
23 | QVQLEESGGGLVQAGGSLRLSCAASGRTFSSYAMVWYRQAPGKERELVAAINSGGSTNYADSVKGRFTISRDNAKNTVYLQMNSLKPEDTAVYYCNAVTFWGLGYDYWGQGTQVTVSS | low polyreactivity
24 | QVQLVESGGGLVQAGGSLRLTCAASGYAMGWYRQAPGKERELVAAISWSGDITYADSVKGRFTISRDNAKNTVYLQMNRLKPEDTAVYSCNADRYTGRDGEQSLDYWGQGTQVTVSS | low polyreactivity
25 | QVQLVESGGGLVQAGGSLRLSCAASGSILSQYAMGWYRQAPGKERELVAAITYSGGSTHYADSVKGRFTISRDNAKNTVYLEMNSLKPEDTAVYYCAAKGPRRWGSGLDYWGQGTHVTVSS | low polyreactivity
26 | QVQLVESGGGLVQAGGSIRLSCAPSGSPNVTYDMGWYRQAPGKESELVASISRGGSTKYADSVKGRFTISRDNAKNTVFLQMNSLKPEDTAVFYGAAKAKNYRLGPYDYWGQGTQVTVSS | low polyreactivity
27 | QVQLVESGGGLVQAGGSLRLSCAASGNTFTRNAMGWYRQAPGKERELVAAITGRGGTYYADSVKGRFTISRDNAKNTVYLQMNSLKPEDTAVYYCNAVYRSSYQKGSMDYWGQGTQVTVSS | high polyreactivity
28 | QVQLVESGGGLVQAGGSLRLSCAASGRIFSYNTLMRWYRQAPGKERELVAAITFSSASTYYADSVKGRFTISRDNAKNTVYLQMNSLKPEDTAVYYCAAAIRSQSSKYYYWGQGTQVTVSS | low polyreactivity
29 | QVQLVESGGGLVQAGGSLRLSCAASGFIFGLNAMGWYRPAPGKERELVAAIRSASSTNYADSVKGRFTISRDNAKNTVYLQMNSVKPEDTAVYYCAAEYVTYQQGFWGYDYWGQGTEVTVSS | low polyreactivity
30 | QVQLVESGGGLVQAGGSLRLSCAASALTLRTYAMGWYRQAPGKERELVAAITTGGSTYYADSVKGRFTISRDNAKNTVYLQLNSLKPEDTAVYYCAADFIRYINRLLYDYWGQGTQVTVSS | low polyreactivity
31 | QVQLVESGGGLVQAGGSLRLSCAASGNIFVSYDLGWYRQAPGKERELVAAISWRGGSTYYADSVKGRFTNSRDNAKNTVFLKMNSLKPEDTAVYYCSVDDWLDWLFADFGYWGQGTQVTVSS | low polyreactivity
32 | QVQLVESGGGLVQAGGSLRLSCAASGITFGRNTMGWYRPAPGKERELVAAIDSGGNTYADSVKGRFTISRDNAKNTVYLQMNSLKAEDTAVYYCAVDGGEFSSYGYWGQGTQVTVSS | low polyreactivity

Reference: the nanobody polyreactivity screen of Harvey et al. (2022)
